Source: US20190276796A1

T1: CD70 (on CD70+ 786-O target cells) (UniProt P32970)
T1 sequence (looked up): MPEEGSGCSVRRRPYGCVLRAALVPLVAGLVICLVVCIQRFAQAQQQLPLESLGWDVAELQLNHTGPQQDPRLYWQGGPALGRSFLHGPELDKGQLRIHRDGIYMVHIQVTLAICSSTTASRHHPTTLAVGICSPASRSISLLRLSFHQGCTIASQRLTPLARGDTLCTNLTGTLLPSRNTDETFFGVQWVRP


These binders were tested against T1, CD70 (on CD70+ 786-O target cells) (assay: cell-based or functional assay).

half maximal lysis (EC50), ADCC 51Cr release assay [ng/mL] | maximal specific lysis [percent] | Binder
9 | 42.5 | control h1F6 antibody (humanized IgG1 anti-CD70 monoclonal antibody, from CHO DG44 cells cultured without fucose analog; core fucosylated) (antibody, INN chains, looked up, V domains shown) VH: QVQLVQSGAEVKKPGASVKVSCKASGYTFTNYGMNWVRQAPGQGLKWMGWINTYTGEPTYADAFKGRVTMTRDTSISTAYMELSRLRSDDTAVYYCARDYGDYGMDYWGQGTTVTVSS VL: DIVMTQSPDSLAVSLGERATINCRASKSVSTSGYSFMHWYQQKPGQPPKLLIYLASNLESGVPDRFSGSGSGTDFTLTISSLQAEDVAVYYCQHSREVPWTFGQGTKVEIK
0.5 | 53.3 | h1F6 antibody from host cells cultured in the presence of 50 µM alkynyl fucose peracetate (non-core fucosylated anti-CD70 antibody) (antibody, INN chains, looked up, V domains shown, non-core fucosylated (alkynyl fucose)) VH: QVQLVQSGAEVKKPGASVKVSCKASGYTFTNYGMNWVRQAPGQGLKWMGWINTYTGEPTYADAFKGRVTMTRDTSISTAYMELSRLRSDDTAVYYCARDYGDYGMDYWGQGTTVTVSS VL: DIVMTQSPDSLAVSLGERATINCRASKSVSTSGYSFMHWYQQKPGQPPKLLIYLASNLESGVPDRFSGSGSGTDFTLTISSLQAEDVAVYYCQHSREVPWTFGQGTKVEIK
0.3 | 54.8 | h1F6 antibody from host cells cultured in the presence of 100 µM alkynyl fucose peracetate (antibody, INN chains, looked up, IgG1, V domains shown, produced with 100 µM alkynyl fucose) VH: QVQLVQSGAEVKKPGASVKVSCKASGYTFTNYGMNWVRQAPGQGLKWMGWINTYTGEPTYADAFKGRVTMTRDTSISTAYMELSRLRSDDTAVYYCARDYGDYGMDYWGQGTTVTVSS VL: DIVMTQSPDSLAVSLGERATINCRASKSVSTSGYSFMHWYQQKPGQPPKLLIYLASNLESGVPDRFSGSGSGTDFTLTISSLQAEDVAVYYCQHSREVPWTFGQGTKVEIK
